Article PMC9913352, “The Rosetta Stone Hypothesis-Based Interaction of the Tumor Suppressor Proteins Nit1 and Fhit” (Cells, 2023)

Target: the molecule itself
Experiment: SEC; untagged proteins after on-column TEV cleavage, Superdex 200-HR, 50 mM Tris/HCl pH 8.0, 100 mM NaCl, 2 mM MgCl2, 0.3 mL/min; calibrated with marker proteins

B1: untagged human Fhit (natural protein)
chain: not shown
notes: Fhit (fragile histidine triad), human, 147 amino acids, ~17 kDa; also called fragile histidine triad
- stoichiometry N: 2
